Substitutions are numbered along the chain they refer to.
B1: human auto-activating MMP-9 (protein)
chain: APRQRQSTLVLFPGDLRTNLTDRQLAEEYLYRYGYTRVAEMRGESKSLGPALLLLQKQLSLPETGELDSATLKAMRTPRCLVPDLGRFQTFEGDLKWHHHNITYWIQNYSEDLPRAVIDDAFARAFALWSAVTPLTFTRVYSRDADIVIQFGVAEHGDGYPFDGKDGLLAHAFPPGPGIQGDAHFDDDELWSLGKGVVVPTRFGNADGAACHFPFIFEGRSYSACTTDGRSDGLPWCSTTANYDTDDRFGFCPSERLYTQDGNADGKPCQFPFIFQGQSYSACTTDGRSDGYRWCATTANYDRDKLFGFCPTRADSTVMGGNSAGELCVFPFTFLGKEYSTCTSEGRGDGRLWCATTSNFDSDKKWGFCPDQGYSLFLVAAHEFGHALGLDHSSVPEALMYPMYRFTEGPPLHKDDVNGIRHLYGPRPEPEPRPPTTTTPQPTAPPTVCPTGPPTVHPSERPTAGPTGPPSAGPTGPPTAGPSTATTVPLSPVDDACNVNIFDAIAEIGNQLYLFKDGKYWRFSEGRGSRPQGPFLIADKWPALPRKLDSVFEERLSKKLFFFSGRQVWVYTGASVLGPRRLDKLGLGADVAQVTGALRSGRGKMLLFSGRRLWRFDVKAQMVDPRSASEVDRMFPGVPLDTHDVFQYREKAYFCQDRFYWRVSSRSELNQVDQVGYVTYDILQCPED
B2: inactive human MMP-9 (protein)
chain: B1 chain with L81G

Biological target: genetically encoded FRET-based MMP-9 activity biosensor with α-helical linker, P09619
Sequence (P09619 whole entry, looked up): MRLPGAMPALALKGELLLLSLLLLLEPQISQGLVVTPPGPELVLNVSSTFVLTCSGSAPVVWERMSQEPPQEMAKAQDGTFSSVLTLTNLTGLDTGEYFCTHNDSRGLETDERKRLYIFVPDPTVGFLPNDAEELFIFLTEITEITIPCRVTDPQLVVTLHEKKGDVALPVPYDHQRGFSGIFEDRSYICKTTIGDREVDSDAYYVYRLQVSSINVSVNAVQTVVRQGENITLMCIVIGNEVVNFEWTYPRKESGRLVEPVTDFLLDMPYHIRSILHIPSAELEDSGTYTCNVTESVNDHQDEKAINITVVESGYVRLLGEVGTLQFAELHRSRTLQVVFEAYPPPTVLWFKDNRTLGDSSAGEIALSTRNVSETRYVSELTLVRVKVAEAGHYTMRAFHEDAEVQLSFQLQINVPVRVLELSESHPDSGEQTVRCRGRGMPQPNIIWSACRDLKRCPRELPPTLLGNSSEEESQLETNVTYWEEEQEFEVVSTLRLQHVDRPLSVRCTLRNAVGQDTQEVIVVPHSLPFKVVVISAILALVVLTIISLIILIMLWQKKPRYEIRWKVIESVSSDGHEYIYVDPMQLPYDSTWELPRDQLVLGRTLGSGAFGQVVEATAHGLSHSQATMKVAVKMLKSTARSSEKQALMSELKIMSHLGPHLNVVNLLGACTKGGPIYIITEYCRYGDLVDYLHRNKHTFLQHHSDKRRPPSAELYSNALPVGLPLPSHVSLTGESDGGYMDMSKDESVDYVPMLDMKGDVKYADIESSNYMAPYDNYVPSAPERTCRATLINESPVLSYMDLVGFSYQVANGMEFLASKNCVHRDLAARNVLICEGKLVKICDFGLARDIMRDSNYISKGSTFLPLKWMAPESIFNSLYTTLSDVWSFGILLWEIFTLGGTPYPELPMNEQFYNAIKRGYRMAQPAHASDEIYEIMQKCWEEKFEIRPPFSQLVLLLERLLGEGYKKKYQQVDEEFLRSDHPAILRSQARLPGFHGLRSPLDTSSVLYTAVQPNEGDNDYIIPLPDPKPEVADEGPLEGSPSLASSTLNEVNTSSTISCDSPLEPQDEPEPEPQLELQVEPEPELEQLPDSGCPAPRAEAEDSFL

Protein | in vitro cleavage of the biosensor in HEK293 lysate, Western blot with anti-GFP antibody
B1 | The MMP-9 activity biosensor is cleaved in vitro by a human auto-activating MMP-9
B2 | Inactive human MMP-9 does not cleave the biosensor

— patent US20160194681
